# Data: US20260167717A1
# B1: CM24, humanized IgG4 anti-CEACAM1 monoclonal antibody (antibody, V domains shown)
# VH: QVQLVQSGAEVKKPGASVKVSCKASGYAFTNNLIEWVRQAPGQGLEWIGVINPGSGDTNYNEKFKGRVTMTADKSISTAYMELSRLRSDDTAVYYCARGDYYGGFAVDYWGQGTTVTVSS
# VL: DIQMTQSPSSLSASVGDRVTITCRTSQDIGNYLNWYQQKPGKAVKLLIYYTSRLHSGVPSRFSGSGSGTDYTLTISSLQPEDIATYFCQQGKSLPRTFGGGTKVEIKR
# Molecular target: human carcinoembryonic antigen-related cell adhesion molecule 1 (CEACAM1) (human) (UniProt P13688)
# Experiment: cell-based or functional assay
# Sequence of UniProt P13688 (P13688 35-526): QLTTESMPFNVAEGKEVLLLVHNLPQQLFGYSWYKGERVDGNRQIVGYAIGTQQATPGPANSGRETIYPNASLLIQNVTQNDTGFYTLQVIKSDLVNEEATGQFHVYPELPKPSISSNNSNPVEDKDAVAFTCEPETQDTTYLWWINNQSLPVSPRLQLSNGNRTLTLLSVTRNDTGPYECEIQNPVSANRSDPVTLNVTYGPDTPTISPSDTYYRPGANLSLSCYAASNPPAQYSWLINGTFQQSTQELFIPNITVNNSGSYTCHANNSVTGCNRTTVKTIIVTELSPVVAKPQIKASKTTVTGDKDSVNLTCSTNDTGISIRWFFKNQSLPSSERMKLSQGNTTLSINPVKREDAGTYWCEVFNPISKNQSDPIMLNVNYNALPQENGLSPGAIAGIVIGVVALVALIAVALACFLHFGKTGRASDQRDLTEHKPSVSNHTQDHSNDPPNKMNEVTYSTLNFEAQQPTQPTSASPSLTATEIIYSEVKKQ
binder,measurement,value
B1,"% Inhibition of NET-induced migration (vs. isotype control), human NSCLC A549",82.7%
same,"% Inhibition of NET-induced migration (vs. isotype control), human PDAC AsPC-1",49.1%
same,"% Inhibition of NET-induced migration (vs. isotype control), human melanoma SKMEL-28",69.5%
same,"ADP-induced platelet aggregation, mean (ADP + CM24, 500 µg/ml, 30 min pretreat)",721 AUC
same,"AUC of cell count, NET-induced migration of AsPC-1 cells (CM24 + NETs, 500 µg/ml)",30600 AUC
same,"Mean AUC of cell count, NET-induced migration of A549 cells (CM24 + NETs, 500 µg/ml)",6580 AUC
same,"Mean AUC of cell count, NET-induced migration of SKMEL-28 cells (CM24 + NETs, 500 µg/ml)",2950 AUC
same,"Norm. AUC of cell count, NET-induced migration of A549 cells (CM24 + NETs, 500 µg/ml)",2170 AUC
same,"Norm. AUC of cell count, NET-induced migration of AsPC-1 cells (CM24 + NETs, 500 µg/ml)",9410 AUC
same,"Norm. AUC of cell count, NET-induced migration of SKMEL-28 cells (CM24 + NETs, 500 µg/ml)",1640 AUC
same,"Percentage platelet aggregation at 30 min, fresh NETs 5 ng/µl, 500 µg/ml CM24",-5.3%
same,"Percentage platelet aggregation at 30 min, fresh NETs 10 ng/µl, 500 µg/ml CM24",11.5%
same,"Platelet aggregation with fresh NETs 5 ng/µl, mean AUC (% aggregation versus time), 500 µg/ml CM24",179 AUC
same,"Platelet aggregation with fresh NETs 10 ng/µl, mean AUC (% aggregation versus time), 500 µg/ml CM24",377 AUC
same,"Reduction of NET-induced platelet aggregation vs. isotype control, 5 ng/µl fresh NETs",70%
same,"Reduction of NET-induced platelet aggregation vs. isotype control, 10 ng/µl fresh NETs",53%
